Experimental data taken from patent CN114989297A (BEIJING KEY BIOTECHNOLOGY CO LTD, dated 2022).

T1: 单核细胞增生李斯特氏菌鞭毛蛋白免疫原 (Listeria monocytogenes, UniProt Q02551 1-287)
T1 construct: Native flagellin preparation concentrated by ultrafiltration, not a recombinant protein; purity beyond the 33 kD band is not described; also called 免疫原蛋白; 抗原
T1 sequence (looked up): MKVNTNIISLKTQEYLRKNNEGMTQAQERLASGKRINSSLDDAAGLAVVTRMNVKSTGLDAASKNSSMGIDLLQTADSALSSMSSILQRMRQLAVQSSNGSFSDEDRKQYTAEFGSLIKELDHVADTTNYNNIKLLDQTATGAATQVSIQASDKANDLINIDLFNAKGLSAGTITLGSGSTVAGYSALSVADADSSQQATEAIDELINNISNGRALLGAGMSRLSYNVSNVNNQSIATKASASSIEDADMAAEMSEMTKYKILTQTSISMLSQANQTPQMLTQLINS

B1: LM3F6单克隆抗体 (antibody, V domains shown)
VH: VKPGGSLKLSCAASSWAQYINTMSWVRQTPDKRLEWVAIISYYSRDKYYPDSVKGRFTISRDQDKQTLYLQMSSLKSEDTAMYYCPYTRPPVIWMTWGQGTTVTVS
VL: DLVMTQTAPSVPVTPGESVSISCRSTQGYCRKLVGDYLYWFLQRPGQSPQLLIYWHPNLASGVPDRFSGSGSGTAFTLRISRVEAEDVGVYYCLCCRCKSGGFGSGTKLEIK
B2: LM6G3单克隆抗体 (antibody, V domains shown)
VH: VKPGGSLKLSCAASITAQPSPRMSWVRQTPDKRLEWVAICFEKKIGLYYPDSVKGRFTISRDQDKQTLYLQMSSLKSEDTAMYYCEHEWWDEQVSPWGQGTTVTVS
VL: DLVMTQTAPSVPVTPGESVSISCRSTFKPWPKYEPLHLYWFLQRPGQSPQLLIYMWFNLASGVPDRFSGSGSGTAFTLRISRVEAEDVGVYYCMNACCYYRQFGSGTKLEIK

Target: T1, 单核细胞增生李斯特氏菌鞭毛蛋白免疫原
Test: IAsys Plus optical biosensor, immunogen immobilised on CMD cuvette, antibody at 5 concentrations, FASTfit

| Binder | Kd [nM] |
| --- | --- |
| B1 | 2.46 |
| B2 | 8.73 |
